Results published in article PMC4164784, “4E-BPs require non-canonical 4E-binding motifs and a lateral surface of eIF4E to repress translation” (Nature Communications, 2014).
No end group written: not given here.

Assays:
eIF4E (residues 69–248) = assay: MBP pull-down of purified eIF4E (69–248); assay type: binding, Drosophila melanogaster; conditions: MBP- and GB1-tagged fragments, 1 h at 4 °C, SDS–PAGE Coomassie, no eIF4G present
Experimental: In Fig. 2c, eIF4G (residues 578–650) and the C+NC peptides of CUP, Thor and 4E-T were expressed with a N-terminal MBP and a C-terminal GB1 tag. The bacterial cells were resuspended in 5 ml of lysis buffer containing 50 mM HEPES (pH 7.2), 200 mM NaCl and 2 mM DTT and lysed by sonication. Purified eIF4E (residues 69–248) was added to the cleared lysates (40–80 μl), adjusted to 0.3 ml with lysis buffer and incubated with 30 μL of amylose resin for 1 h at 4 °C. The beads were washed three times with lysis buffer and eluted with 64 μl of the same buffer containing 25 mM maltose. The proteins were analyzed by 15% SDS–PAGE followed by Coomassie blue staining.

[1] = target: T1, eIF4E–eIF4G complex (eIF4E WT; eIF4G residues 578–650) (Drosophila melanogaster, UniProt P48598); assay: Competition assay, displacement of GST-eIF4G from preassembled eIF4E (WT)–eIF4G complexes; assay type: biochemical; conditions: Fig. 5a,c; fivefold molar excess of MBP-tagged competitor, 30 min at 4 °C, m7GTP or Strep-Tactin pull down
T1 construct: full-length eIF4E (WT or the II-AA mutant) containing an N-terminal SNH-tag was coexpressed; made in house; host or cells: E. coli BL21 Star (DE3), coexpression
T1 sequence (P48598 1-248 isoform P48598-2): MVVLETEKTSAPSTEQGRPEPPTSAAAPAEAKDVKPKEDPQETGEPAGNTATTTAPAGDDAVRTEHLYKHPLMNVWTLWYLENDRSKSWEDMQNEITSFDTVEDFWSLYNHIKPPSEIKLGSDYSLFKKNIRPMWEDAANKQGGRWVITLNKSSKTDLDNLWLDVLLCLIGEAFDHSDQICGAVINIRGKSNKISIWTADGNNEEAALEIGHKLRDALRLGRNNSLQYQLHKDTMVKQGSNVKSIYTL
Experimental: (§1) For the competition assays shown in Figs 5a,c and 6a,b, complexes containing SHN- or MBP-tagged eIF4E (WT or II-AA mutant) bound to GST-eIF4G (residues 578–650), GST-Thor (full length), GST-4E-T (residues 1–58) or GST-CUP (311–440) were obtained by coexpressing the corresponding proteins in E. coli BL21 (DE3) STAR cells (30 ml culture). The cells were resuspended in lysis buffer (5 ml) that was supplemented with EDTA-free protease inhibitor (Roche) and 1 mg ml^−1 lysozyme and lysed by sonication. The cleared lysates were incubated with 400 μl of Protino Glutathione Agarose 4B (Macherey-Nagel) for 1 h. The beads were washed three times with lysis buffer, and the proteins were eluted after 10 min of incubation with lysis buffer containing 25 mM L-glutathione. The protein complexes were stored at −20 °C or used in competition assays.
The purified recombinant complexes were mixed with excess amounts of the indicated purified competitor proteins (Fig. 5c) or with bacterial lysates expressing the competitor proteins (Figs 5a and 6) and incubated for 30 min at 4 °C. After incubation, 20 μl of immobilized γ-Aminophenyl-m^7GTP or Strep-Tactin Sepharose (IBA), were added to the samples and incubated for another 40 min at 4 °C. The beads were washed three times with lysis buffer and eluted with lysis buffer containing 2.5 mM desthiobiotin (Strep-Tactin Sepharose) or with 20 μl of SDS–PAGE loading buffer (Aminophenyl-m^7GTP beads). The proteins were analyzed by 10–15% SDS–PAGE followed by staining with Coomassie blue staining. […]

[2] = system: eIF4E II-AA (lateral surface mutant); assay: Coimmunoprecipitation with HA-eIF4E II-AA in S2 cells; assay type: cell-based, Drosophila melanogaster; conditions: HA-eIF4E II-AA vs WT, western blot
Experimental: The coimmunoprecipitations assays were performed as previously described. For the pull downs using m^7GTP beads, 25 μl of immobilized γ-aminophenyl-m^7GTP (C10-spacer—Jena Bioscience) beads was added to the cell lysates and the mixtures were rotated for 1 h at 4 °C. The beads were washed three times with NET buffer (50 mM Tris (pH 7.4), 150 mM NaCl, 1 mM EDTA and 0.1% Triton X-100). The bound proteins were eluted with 2 × SDS–polyacrylamide gel electrophoresis (SDS–PAGE) sample buffer and analyzed by western blotting (WB). All of the WB experiments were developed with the ECL western blotting detection system (GE Healthcare) as recommended by the manufacturer. The antibodies used in this study are listed in Supplementary Table 2.

[3] = system: eIF4E II-AA mutant (full length); assay: GST/MBP pull-down of full-length eIF4E II-AA mutant, coexpressed in E. coli; assay type: binding, Drosophila melanogaster; conditions: recombinant CUP (311–440), Thor (full length), 4E-T (1–58) or eIF4G (578–650), WT or mutant, SDS–PAGE
Experimental: For the pull-down assays shown in Fig. 3 and Supplementary Fig. 6a, the full-length His6- or SHN-tagged eIF4E (WT or II-AA mutant) was coexpressed with GST or MBP-tagged protein fragments, including CUP (residues 311–440), Thor (full length), 4E-T (residues 1–58) or eIF4G (residues 578–650) in E. coli BL21 (DE3) STAR cells in autoinducing medium[44] overnight at 20 °C. The cells were resuspended in lysis buffer (20 mM Tris–HCl (pH 7.5), 100 mM NaCl, 1 mM DTT) supplemented with EDTA-free protease inhibitor (Roche) and lysed by sonication. The cleared lysates were incubated for 1 h with 20 μl of Protino Glutathione Agarose 4B beads (Macherey-Nagel) or amylose resin (New England Biolabs). The beads were washed three times with lysis buffer, and the bound proteins were eluted with lysis buffer containing 25 mM L-glutathione or 25 mM maltose for 15 min. The proteins were analyzed by 10–15% SDS–PAGE followed by Coomassie blue staining.

endogenous eIF4E = assay: Coimmunoprecipitation / m7GTP pull-down with endogenous eIF4E in S2 cell lysates; assay type: cell-based, Drosophila melanogaster; conditions: western blot
Summary of the method: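 S2 cell lysates expressing HA-tagged 4E-BPs (CUP, Thor, 4E-T), eIF4G or mutants, immunoprecipitated with anti-eIF4E or anti-HA antibodies, or pulled down with m7GTP beads for 1 h at 4 °C. Washes in NET buffer (50 mM Tris pH 7.4, 150 mM NaCl, 1 mM EDTA, 0.1% Triton X-100). Bound proteins detected by anti-HA/anti-eIF4E western blot; pre-immune serum and HA-MBP as negative controls.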

[4] = system: endogenous eIF4E and HA-tagged 4E-BPs in S2 cells; assay: Immunofluorescence localization in S2 cells; assay type: cell-based, Drosophila melanogaster
Experimental: S2 cells expressing HA-tagged versions of CUP, Thor and 4E-T or the indicated mutants were treated with Leptomycin B (100 nM; Sigma) or methanol as a control for 12 h. After the LMB treatment, the cells were allowed to adhere to poly-D-lysine–coated coverslips for 15 min and were fixed with 2% paraformaldehyde for 10 min. The cells were then permeabilized with 0.1% Triton X-100 in PBS (10 min) and stained with affinity-purified monoclonal anti-HA (Covance 1:1,000) and polyclonal anti-eIF4E (1:2,000) antibodies in PBS containing 1% BSA for 1 h. Alexa Fluor 594-labeled goat anti-rabbit and 488-labeled anti-mouse antibodies (Invitrogen) were used at dilutions of 1:1,000 and 1:2,000, respectively. The cells were mounted using Fluoromount-G (Southern Biotech). The images were acquired at room temperature using a confocal microscope (TCS SP2; Leica) that was fitted with a Plan-Apochromat × 100 NA 1.40 oil immersion objective and a series of three photomultipliers (Hamamatsu Photonics) controlled with the Leica confocal software (version 2.61). The images were prepared using Photoshop (Adobe). […]
Thor) independent experiments. […] Confocal fluorescent […]
micrographs of fixed S2 cells expressing HA-4E-T and GFP-Tral. The localization of HA-4E-T was determined by indirect immunofluorescence using an anti-HA antibody. The merged pictures show the HA signal in red and the GFP-Tral signal in green. Bar: 5 μm.

[5] = system: eIF4E W106A (dorsal surface mutant); conditions: known effect of W106A substitution; cited from earlier work
[6] = system: eIF4E (WT) bound to GST-CUP, GST-Thor, GST-4E-T or GST-eIF4G; assay: Competition by MBP-eIF4G with 4E-BPs or eIF4G bound to WT eIF4E; assay type: biochemical, Drosophila melanogaster; conditions: excess MBP-eIF4G (residues 578–650), 30 min at 4 °C, Strep-Tactin pull down
Experimental: as §1
(§2) The purified recombinant complexes were mixed with excess amounts of the indicated purified competitor proteins (Fig. 5c) or with bacterial lysates expressing the competitor proteins (Figs 5a and 6) and incubated for 30 min at 4 °C. After incubation, 20 μl of immobilized γ-Aminophenyl-m^7GTP or Strep-Tactin Sepharose (IBA), were added to the samples and incubated for another 40 min at 4 °C. […] The proteins were analyzed by 10–15% SDS–PAGE followed by staining with Coomassie blue staining.

[7] = system: eIF4E II-AA mutant bound to GST-4E-BP; assay: Competition by MBP-eIF4G with 4E-BPs bound to eIF4E II-AA mutant; assay type: biochemical, Drosophila melanogaster; conditions: 30 min at 4 °C
Experimental: as §1, §2

## CUP NC: CUP residues 362–376, non-canonical motif, MBP/GB1 fusion (IELEGRLRRMNIWRT; also: MBP/GB1 fusion; UniProt Q9VMA3 362-376, looked up, fragment)
eIF4E (residues 69–248)
  pull down of purified eIF4E (in words): bind to eIF4E in the absence of eIF4G
[1]
  competition with eIF4G for eIF4E WT (in words): did not compete with eIF4G

B1: CUP: Dm CUP (1–1117), Q9VMA3; residues 311–440 in pull-down assays (protein)
chain: MQMAEAEQENGAGALKIATNAGATDRPAHQQLPLPVEDQQDEVLTPAEKGKFEYPPPPPPPTPVQAPLATKATALNASQEHDDDEANSEKWEDPCAPPPPPPLPTSAFLATGLGYLKLPAFKLKDALEKAITKLEANKRTLKASPESSRSIKNKNVVALEMLPRRSNPETIGDGSMLASTSTAVMLQTKKPAVIVEMERRCKIINLLAKQNQILESISGEAIPMHGPSKHLHEDEGLTLQVLSARASTPYTQPSSMLSCTAVSCDLEHDSPRKQVASKEAVPEQQSSQVQQKRPPSTGIHKPGSLRAPKAVRPTTAPVVSSKPVKSYTRSRLMDIRNGMFNALMHRSKESFVMPRIATCDDIELEGRLRRMNIWRTSDGTRFRTRSTTANLNMNNNNNNECMPAFFKNKNKPNLISDESIIQSQPPQPQTEFQDPAIVNQRRIGSGRLNHSKWGYNDEDYHSYHNGKSQHMEEVNSKNSKNMTVLQFFDNGEISSQPQRRPNTPVMGMSINRSENDTLHSNESSEDLSRANENYVKRVMSGFLVVSKPKSRDVEDRHHRRYRNQNEEPEWFSCGPTSRLDTIELCGFDEDEEKMLKEGNKNHGLGETERETSKQKMDHKYKWTHAEPMGRSKYMPKHDTNNNHNVENMNNVMATEHQQQKEEKRPGSGRSFQFDKFNQSQQNYESSSYVNHQQPPQTQPQQMQQQSNTNTNNSKFMSFFANEGNSSSSSLNEFFKQAINQGHGNNPEQPKSLGHIGQMPSVDQLEAKWRRNSLNNVGETANKQTDNFQKLIGSLSSAKPQSQAVGYDAISNFIMQQQQYQQQQQKQHLIIQQQQQHTAFLASLQLKAILGRADTQLLLLRLTKGEISKHGLLVQLANPRLTDMDREAITAVLQFTNTQQQQQQHKQQLDMLSSTVIASQLQNLHNLAIVQQTLAARQQPQHNPQTQAPHQLSQEDLQAHANVIMRNAVMKRKIEEQTSKLINGGAKHQAQQQYLNRGQQRQARPDANSNALLHALISGGGNNHASGYPMNGQPQKHHSNLRFGDNQNFQSFESNQPHFATQYKQQYQQSQQQHPHQQPQQLNSLHQNNAGAVNSFNKAQMQAQSAISMLPNSGDEFH
modifications: left off: GFP, end not stated, kept
notes: Dm CUP (1–1117), Q9VMA3; residues 311–440 in pull-down assays
[2]
  association with eIF4E II-AA (in words): disrupted the association
[3]
  binding to eIF4E II-AA mutant (in words): pulled down comparable amounts of WT and mutant eIF4E
Endogenous eIF4E
  interaction with endogenous eIF4E (in words): interacted with endogenous eIF4E
[4]; S2 cells expressing 4E-BP or mutant, LMB 100 nM, 12 h
  nuclear accumulation of endogenous eIF4E upon LMB (in words): endogenous eIF4E accumulated in the nucleus
[4]; S2 cells overexpressing 4E-BP or mutant, −LMB
  localization of endogenous eIF4E (in words): evenly distributed in the cytoplasm
[4]; S2 cells, LMB 100 nM, 12 h
  nuclear accumulation of 4E-BP upon LMB (in words): nuclear accumulation
[4]; S2 cells, steady-state, −LMB
  localization of the 4E-BP (in words): distributed evenly throughout the cytoplasm
[5]
  binding to eIF4E W106A (in words): abolishes the binding

B2: MBP-eIF4G: MBP-eIF4G (residues 578–650) (protein)
chain: PETTLNDKQDSTDLKVKVSAKISSIINYNEGQWSPNNPSGKKQYDREQLLQLREVKASRIQPEVKNVSILPQP
modifications: left off: MBP, N-terminal, kept | GB1, C-terminal, kept
[6]
  displacement of proteins bound to WT eIF4E (in words): did not displace CUP, Thor, 4E-T or eIF4G bound to WT eIF4E
[7]; excess MBP-eIF4G (residues 578–650) vs GST-CUP (311–440)
  displacement of CUP bound to eIF4E II-AA (in words): partially displaced CUP
[7]; excess MBP-eIF4G (residues 578–650) vs GST-Thor (full length)
  displacement of Thor bound to eIF4E II-AA (in words): completely displaced full-length Thor
